Laboratory results reported in patent US6103872A, “CAPON: a protein associated with neuronal nitric oxide synthase” (The Johns Hopkins University, priority 1998, dated 2000).

Assays:
nNOS/PSD95 interaction [1] = experiment: Competition of His6-fusion proteins for nNOS binding to immobilized GST-PSD95; set-up: competition for / block of nNOS-PSD95 interaction: dose or concentration left out as unconfirmed; conditions: for block of nNOS/PSD95 interaction in vitro: no concentration stated
Method: (§1) The C-terminal 100 amino acids were fused to a His6 tag and added to HEK293 lysates transfected with nNOS expression plasmids at the indicated fusion protein concentration. This mixture was added to GST-PSD95 (amino acids 20-364) or GST-PSD93 (116-421), the regions of these proteins previously shown to interact with nNOS (Brenrman et al., 1996).
(FIG. 5B) Quantification of CAPON inhibition of the nNOS/PSD95 interaction. HEK293 cells were transfected with nNOS expression plasmids and then metabolically labeled with [^35 S] methionine. Radiolabeled nNOS was purified and mixed with His6 -CAPON as in (A), above. Bound nNOS was resolved by electrophoresis and counts were determined on a Phospholmager.
Transfections were performed with 10 μg of each plasmid using the calcium phosphate method. Following transfection, cells were sonicated in buffer A [50 mM Tris-HCl (pH 7.7), 100 mM NaCl, 2 mM EDTA, and 1% Triton X-100] and cleared by centrifugation. This cellular lysate was incubated with GST-fusion protein immobilized on glutathione-agarose for one hour at 4° C. and washed extensively in HNTG buffer [20 mM Hepes (pH 7.4), 500 mM NaCl, 10% glycerol, and 0.1% Triton X-100] five times, for ten minutes per wash at room temperature. A GST-CAPON fusion protein consisting of amino acids 379-503 was used for binding assays because it was more soluble when expressed in bacteria than larger CAPON fusion proteins.
For quantitative binding experiments, transfected cells were metabolically labeled overnight with […] [^35 S] methionine and nNOS was purified by NADPH elution of 2', 5' ADP ribose as described previously (Bredt and Snyder, 1990).
Since the nNOS PDZ domain is capable of both PDZ-PDZ interactions and PDZ-C-terminal peptide interactions we wondered whether CAPON and PSD95 can bind simultaneously to nNOS or whether their interactions with nNOS are mutually exclusive. To answer this question we incubated lysates of HEK-293 cells containing nNOS with various concentrations of a His6 -CAPON fusion protein, comprising the last 125 amino acids of CAPON, and then added these lysates to GST-PSD95 immobilized on glutathione agarose resin (FIG. 5A). After extensive washing of the resin, we assayed for nNOS bound to PSD95 by Western blot. […] Half maximal reduction of binding is evident between 5 and 50 nM His6 -CAPON (FIG. 5B). […] As controls, we examined the effects of 5 μM His6 -PIN or […] His6 -FK506 binding protein-12 kD (FKBP). […] These effects of CAPON likely reflect its binding to nNOS rather than to the PDZ domains of either PSD95 or PSD93 because CAPON fails to interact with either PSD93 or PSD95 using (i) a two-hybrid assay (see FIG. 1A) and (ii) in vitro experiments utilizing immobilized GST-PSD95 and purified recombinant CAPON (data not shown).

nNOS/PSD95 interaction [2] = experiment: Coimmunoprecipitation of myc-PSD95 with HA-nNOS in transfected HEK293 cells; format: cell-based; conditions: cotransfection of full-length CAPON expression plasmid
From the text: FIG. 6. CAPON expression prevents the interaction of PSD95 and nNOS. HEK293 cells were transfected with various combinations of expression plasmids for HA-tagged nNOS (HA-NOS), myc-tagged PSD95, or CAPON. Following transfection, the lysates were immunoprecipitated with an anti-HA antibody and bound proteins were detected with the appropriate antibodies. Following cotransfection of HA-NOS and myc-PSD95, myc-PSD95 is detected in anti-HA immunoprecipitates. […] In the absence of HA-nNOS transfection, neither myc-PSD95 or CAPON is immunoprecipitated by anti-HA antibodies.
We wanted to determine if CAPON and PSD95 compete for binding to nNOS in intact cells. Accordingly, we transfected HEK-293 cells with various mixtures of expression plasmids containing cDNAs of hemagglutinin antigen (HA)-tagged nNOS, myc-tagged PSD95 and/or full-length CAPON. Following immunoprecipitation with antibodies to HA, we examined which proteins coprecipitated. In cells expressing HA-nNOS and myc-PSD95, antibodies to HA coprecipitate myc-PSD95 (FIG. 6). When various amounts of CAPON cDNA containing expression plasmids are also transfected, HA-immunoprecipitatescontain CAPON but substantially less PSD95.

nNOS [3] = target: T1, nNOS (Rattus norvegicus, UniProt P29476); experiment: nNOS catalytic activity; format: biochemical; conditions: data not shown
nNOS [4] = target: T1, nNOS; experiment: CAPON C-terminal peptides as competitors for nNOS binding; set-up: expressed in transfected cells; host or cells: HEK293
[5] = target: nNOS expressed in transfected HEK293 cells (lysate; also metabolically labelled and purified); experiment: competition: nNOS (HEK-293) binding to immobilized GST-PSD95 in the presence of His6-CAPON
nNOS PDZ domain = experiment: Binding of mutagenized His6-CAPON fusion proteins to immobilized GST-NOS (1-100); conditions: His6-fusion of last 100 amino acids of CAPON, last four amino acids given
Method: His6 -fusion proteins of the last 100 amino acids of CAPON were generated and incubated with GST-NOS (1-100) immobilized on glutathione agarose.
Recently Cantley and associates (Songyang et al., 1997) identified consensus sequences for binding to several PDZ domains. Binding of PDZ ligands involves the C-terminus of proteins, with determinants of specificity lying within the eight or fewer C-terminal amino acids. A consistent requirement among all the PDZ domain ligands is a hydrophobic residue, such as valine or leucine, as the final amino acid.

[6] = target: T2, nNOS construct comprising amino acids 163-245 (PIN-binding domain of nNOS), Gal4 BD fusion (rat); experiment: yeast two-hybrid with truncations of nNOS
T2 chain: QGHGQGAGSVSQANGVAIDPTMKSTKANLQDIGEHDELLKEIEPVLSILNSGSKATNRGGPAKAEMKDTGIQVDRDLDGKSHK

nNOS/PSD93 interaction = experiment: Competition for nNOS binding to immobilized GST-PSD93
Method: as §1
Since the nNOS PDZ domain is capable of both PDZ-PDZ interactions and PDZ-C-terminal peptide interactions we wondered whether CAPON and PSD95 can bind simultaneously to nNOS or whether their interactions with nNOS are mutually exclusive. To answer this question we incubated lysates of HEK-293 cells containing nNOS with various concentrations of a His6 -CAPON fusion protein, comprising the last 125 amino acids of CAPON, and then added these lysates to GST-PSD95 immobilized on glutathione agarose resin (FIG. 5A). After extensive washing of the resin, we assayed for nNOS bound to PSD95 by Western blot. […] Half maximal reduction of binding is evident between 5 and 50 nM His6 -CAPON (FIG. 5B). […] As controls, we examined the effects of 5 μM His6 -PIN or […] His6 -FK506 binding protein-12 kD (FKBP). […]

[7] = target: nNOS (purified nNOS standard; preparation and species not stated); experiment: peptide competition; format not described

## His6 -FKBP: His6-tagged FK506 binding protein-12 kD, control protein [reference compound]
nNOS/PSD95 interaction [1]
  competition for / block of nNOS-PSD95 interaction: Neither of these proteins compete
  block of nNOS/PSD95 interaction in vitro: do not disrupt

## CAPON: Carboxyl-terminal PDZ ligand of nNOS, 503 amino acid rat cytoplasmic protein
nNOS/PSD95 interaction [2]
  amount of myc-PSD95 in anti-HA precipitates: substantially reduces
nNOS [3]
  direct inhibition of nNOS catalytic activity: does not inhibit

## 16-residue peptides: 16-residue peptides of the CAPON C-terminus (LQRQELGDSLDDEIAV; UniProt O54960 488-503, looked up, fragment)
nNOS [4]; read-out: IC50 as competitor
  IC50: 10 µM

## peptides comprising the C-terminal nine residues of CAPON: short, presumably unfolded, peptides comprising the C-terminal nine residues of CAPON (DSLDDEIAV)
nNOS [4]
  binding to nNOS: bind nNOS weakly

## His6-CAPON fusion protein comprising the last 125 amino acids of CAPON
[5]
  IC50: 0.005 to 0.05 µM

B1: DC20: His6-CAPON fusion protein with the C-terminal 20 amino acids deleted (protein)
chain: SGALPVLCESTTPKPEDLHSPLLGAGLADFAHPVGSPLGRRDCLVKLECFRFLPAEDNQPMAQGEPLLGGLELIKFRESGIASEYESNTDESEERDSWSQEELPR
nNOS/PSD95 interaction [1]
  competition for / block of nNOS-PSD95 interaction: fails to block the interaction
  block of nNOS/PSD95 interaction in vitro: abolishes its ability to serve as a competitor

B2: EIAA: His6-CAPON (last 100 amino acids), terminal valine mutated to alanine (protein)
chain: GLADFAHPVGSPLGRRDCLVKLECFRFLPAEDNQPMAQGEPLLGGLELIKFRESGIASEYESNTDESEERDSWSQEELPRLLNVLQRQELGDSLDDEIAA
nNOS PDZ domain
  binding to GST-NOS (1-100): prevents binding

B3: EAAV: His6-CAPON (last 100 amino acids), n-2 isoleucine mutated to alanine (protein)
chain: GLADFAHPVGSPLGRRDCLVKLECFRFLPAEDNQPMAQGEPLLGGLELIKFRESGIASEYESNTDESEERDSWSQEELPRLLNVLQRQELGDSLDDEAAV
nNOS PDZ domain
  binding to GST-NOS (1-100): tolerated

B4: ESAV: His6-CAPON (last 100 amino acids), n-2 isoleucine mutated to serine (protein)
chain: GLADFAHPVGSPLGRRDCLVKLECFRFLPAEDNQPMAQGEPLLGGLELIKFRESGIASEYESNTDESEERDSWSQEELPRLLNVLQRQELGDSLDDESAV
nNOS PDZ domain
  binding to GST-NOS (1-100): tolerated

B5: pAD-CAPON1 (Gal4 activation domain fused to the last 125 amino acids of CAPON) (other)
chain: SGALPVLCESTTPKPEDLHSPLLGAGLADFAHPVGSPLGRRDCLVKLECFRFLPAEDNQPMAQGEPLLGGLELIKFRESGIASEYESNTDESEERDSWSQEELPRLLNVLQRQELGDSLDDEIAV
[6]
  binding result: no binding

B6: His6 -CAPON: His6-tagged fusion protein of the C-terminal 100 or 125 amino acids of CAPON (protein)
chain: SGALPVLCESTTPKPEDLHSPLLGAGLADFAHPVGSPLGRRDCLVKLECFRFLPAEDNQPMAQGEPLLGGLELIKFRESGIASEYESNTDESEERDSWSQEELPRLLNVLQRQELGDSLDDEIAV
nNOS PDZ domain
  binding to GST-NOS (1-100): binds
nNOS/PSD93 interaction
  competition for nNOS binding to immobilized GST-PSD93: effective competitor
nNOS/PSD95 interaction [1]; 5 nM fusion protein
  reduction of nNOS binding to GST-PSD95: substantial reduction
nNOS/PSD95 interaction [1]
  block of nNOS/PSD95 interaction in vitro: specifically block
nNOS/PSD95 interaction [1]; see FIG. 5
  effective concentration range as competitor: active in the nanomolar range

## LQRQELGDSLDDEIAV [16-residue peptides of CAPON]
[7]
  IC50: 10000 µM
